Experimental data: paper PMC4571342 (Molecular Biology of the Cell, 2015)

Biological target: the molecule itself
Test: AUC

B1: C-terminal region (amino acids 104–278) of Lnp1 fused to maltose-binding protein (domain or fragment)
chain: FYNNNRLRKLAKLRAIHQKKLEKLKEETHYNATSSIIQRFSSGEDQNDDAMVLLDDELNAKYQELNNLKTELEKFKKESHVKGLKKEDSDAWFDKIISVLAGGNELDSTSSLSPFKKIICPQCHWKSNCYRLASKPIIFICPHCNHKIDEVKEREDAIEAKQPAQPSQSEKEKTK
stoichiometry N: 2
